Measurements: US20160200782A1 (MOERAE MATRIX, published 2016)

What was measured:
Experiment in all cases: cell-based or functional assay
Flt4(h) = Flt4(h) (human, UniProt P35916 800-1363, limits assumed)
Pim-1(h) = Pim-1(h) (human, UniProt P11309 1-313)
NEK6(h) = NEK6(h) (human, UniProt Q9HC98 1-313)
FGFR1(h) = FGFR1(h) (human, UniProt P11362 456-765, limits assumed)
PDGFRβ(h) = PDGFRβ(h) (human, UniProt P09619 557-1106, limits assumed)
JNK3(h) = JNK3(h) (human, UniProt P53779 1-464, limits assumed)
Sequence of JNK3(h) (P53779 whole entry): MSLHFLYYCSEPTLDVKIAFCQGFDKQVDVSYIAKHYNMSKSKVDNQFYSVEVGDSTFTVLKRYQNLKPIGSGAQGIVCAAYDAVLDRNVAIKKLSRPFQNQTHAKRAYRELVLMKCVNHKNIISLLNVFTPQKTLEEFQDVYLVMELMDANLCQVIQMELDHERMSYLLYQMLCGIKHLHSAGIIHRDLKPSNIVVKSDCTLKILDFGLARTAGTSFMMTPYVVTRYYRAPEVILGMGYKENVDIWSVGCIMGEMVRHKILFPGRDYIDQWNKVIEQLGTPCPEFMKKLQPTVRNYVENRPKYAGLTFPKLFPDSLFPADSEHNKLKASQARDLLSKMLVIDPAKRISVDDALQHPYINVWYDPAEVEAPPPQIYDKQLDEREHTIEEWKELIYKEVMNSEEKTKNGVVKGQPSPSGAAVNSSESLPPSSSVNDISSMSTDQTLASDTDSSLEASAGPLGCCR

Syk(h) = Syk(h) (human, UniProt P43405 1-635, limits assumed)
Tie2(Y897S)(h) = Tie2(Y897S)(h) (human, UniProt Q02763 771-1124, limits assumed)
Sequence of Tie2(Y897S)(h) (Q02763 771-1124 Y897S limits assumed): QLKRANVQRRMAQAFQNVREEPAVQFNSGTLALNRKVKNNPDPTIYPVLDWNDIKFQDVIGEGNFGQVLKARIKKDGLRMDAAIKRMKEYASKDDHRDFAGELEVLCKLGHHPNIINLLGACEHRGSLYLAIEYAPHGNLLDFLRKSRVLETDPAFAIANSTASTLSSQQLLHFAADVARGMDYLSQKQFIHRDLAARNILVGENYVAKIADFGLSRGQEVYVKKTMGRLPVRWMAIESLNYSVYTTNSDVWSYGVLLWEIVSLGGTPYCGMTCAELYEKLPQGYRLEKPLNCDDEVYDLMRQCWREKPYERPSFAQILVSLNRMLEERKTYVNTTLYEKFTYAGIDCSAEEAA

MST2(h) = molecular target: T1, MST2(h) (human, UniProt Q13188 1-491, limits assumed)
T1 sequence (looked up): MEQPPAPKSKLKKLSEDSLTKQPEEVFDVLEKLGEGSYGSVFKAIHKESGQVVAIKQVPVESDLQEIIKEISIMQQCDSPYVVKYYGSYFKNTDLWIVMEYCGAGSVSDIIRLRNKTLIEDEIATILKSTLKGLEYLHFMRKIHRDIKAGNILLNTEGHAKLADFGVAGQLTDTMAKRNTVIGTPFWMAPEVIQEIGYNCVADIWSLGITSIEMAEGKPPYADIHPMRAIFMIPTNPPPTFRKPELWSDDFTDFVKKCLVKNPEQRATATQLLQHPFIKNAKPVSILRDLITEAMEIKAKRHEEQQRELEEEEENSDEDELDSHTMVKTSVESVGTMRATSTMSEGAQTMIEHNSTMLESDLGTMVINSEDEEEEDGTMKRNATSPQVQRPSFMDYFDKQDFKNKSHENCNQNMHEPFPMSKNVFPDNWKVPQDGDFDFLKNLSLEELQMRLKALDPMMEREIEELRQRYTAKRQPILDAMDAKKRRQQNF

Aurora-A(h) = molecular target: T2, Aurora-A(h) (human, UniProt O14965 1-403)
T2 sequence (looked up): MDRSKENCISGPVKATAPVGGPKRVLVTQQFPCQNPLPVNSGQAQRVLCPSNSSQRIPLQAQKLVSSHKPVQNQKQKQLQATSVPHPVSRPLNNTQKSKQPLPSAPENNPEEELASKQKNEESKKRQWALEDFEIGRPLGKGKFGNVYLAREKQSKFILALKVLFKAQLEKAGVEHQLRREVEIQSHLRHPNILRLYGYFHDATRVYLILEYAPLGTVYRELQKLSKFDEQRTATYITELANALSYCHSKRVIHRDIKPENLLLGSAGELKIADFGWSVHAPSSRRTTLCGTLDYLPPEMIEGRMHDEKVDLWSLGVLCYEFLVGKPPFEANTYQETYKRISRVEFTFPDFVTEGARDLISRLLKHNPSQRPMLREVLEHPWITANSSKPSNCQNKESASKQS

MELK(h) = MELK(h) (human, UniProt Q14680 1-340, limits assumed)
Sequence of MELK(h) (Q14680 1-340 limits assumed): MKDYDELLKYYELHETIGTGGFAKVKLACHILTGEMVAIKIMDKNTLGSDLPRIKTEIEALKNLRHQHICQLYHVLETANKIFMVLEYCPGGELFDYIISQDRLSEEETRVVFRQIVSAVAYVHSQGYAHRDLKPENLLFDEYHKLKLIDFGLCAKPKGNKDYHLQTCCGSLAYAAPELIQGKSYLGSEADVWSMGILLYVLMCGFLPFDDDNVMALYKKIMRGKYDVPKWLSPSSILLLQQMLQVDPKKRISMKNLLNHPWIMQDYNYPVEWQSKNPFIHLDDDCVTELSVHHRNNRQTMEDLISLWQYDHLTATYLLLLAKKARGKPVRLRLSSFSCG

Tie2(h) = Tie2(h) (human, UniProt Q02763 771-1124, limits assumed)
Sequence of Tie2(h) (Q02763 771-1124 limits assumed): as the sequence (Q02763 771-1124 Y897S limits assumed) above, with S127Y counted along it

TAO2(h) = molecular target: T3, TAO2(h) (human, UniProt Q9UL54 1-314, limits assumed)
T3 sequence (looked up): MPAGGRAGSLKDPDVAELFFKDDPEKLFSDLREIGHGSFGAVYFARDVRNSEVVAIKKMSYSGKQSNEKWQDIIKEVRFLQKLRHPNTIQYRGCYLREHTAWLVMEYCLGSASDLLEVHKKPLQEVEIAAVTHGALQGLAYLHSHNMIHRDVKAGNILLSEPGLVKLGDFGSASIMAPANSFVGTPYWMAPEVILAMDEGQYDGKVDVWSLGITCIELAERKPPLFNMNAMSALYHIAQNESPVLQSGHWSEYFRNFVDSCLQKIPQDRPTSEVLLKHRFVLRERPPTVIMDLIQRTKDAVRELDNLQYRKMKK

PKCτ(h) = PKCτ(h) (human)
MLK1(h) = MLK1(h) (human, UniProt P80192 132-413, limits assumed)
Sequence of MLK1(h) (P80192 132-413 limits assumed): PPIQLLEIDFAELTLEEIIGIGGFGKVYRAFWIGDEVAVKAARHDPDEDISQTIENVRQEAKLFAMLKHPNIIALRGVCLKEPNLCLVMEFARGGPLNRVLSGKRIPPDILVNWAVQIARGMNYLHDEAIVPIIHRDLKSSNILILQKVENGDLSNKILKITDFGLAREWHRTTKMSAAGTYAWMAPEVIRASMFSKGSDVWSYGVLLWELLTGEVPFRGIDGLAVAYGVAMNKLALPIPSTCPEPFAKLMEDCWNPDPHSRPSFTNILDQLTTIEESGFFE

STK33(h) = STK33(h) (human, UniProt Q9BYT3 1-514, limits assumed)
PRAK(h) = molecular target: T4, PRAK(h) (human, UniProt Q8IW41 1-473, limits assumed)
T4 sequence (looked up): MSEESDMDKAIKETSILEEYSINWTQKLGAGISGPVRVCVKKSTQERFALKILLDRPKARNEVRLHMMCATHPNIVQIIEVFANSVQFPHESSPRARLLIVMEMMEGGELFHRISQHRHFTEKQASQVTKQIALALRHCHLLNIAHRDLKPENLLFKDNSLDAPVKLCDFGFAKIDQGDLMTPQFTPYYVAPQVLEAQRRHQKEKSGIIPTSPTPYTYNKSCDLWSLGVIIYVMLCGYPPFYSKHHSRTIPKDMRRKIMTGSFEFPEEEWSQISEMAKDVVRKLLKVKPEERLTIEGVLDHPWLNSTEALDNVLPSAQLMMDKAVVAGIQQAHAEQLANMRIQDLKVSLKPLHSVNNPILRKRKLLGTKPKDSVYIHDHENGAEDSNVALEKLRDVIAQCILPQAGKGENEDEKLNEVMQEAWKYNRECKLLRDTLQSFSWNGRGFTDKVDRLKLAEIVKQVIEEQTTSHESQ

Ab1(Q252H)(h) = Ab1(Q252H)(h) (human, UniProt P00519 27-1130, limits assumed)
Sequence of Ab1(Q252H)(h) (P00519 27-1130 Q252H limits assumed): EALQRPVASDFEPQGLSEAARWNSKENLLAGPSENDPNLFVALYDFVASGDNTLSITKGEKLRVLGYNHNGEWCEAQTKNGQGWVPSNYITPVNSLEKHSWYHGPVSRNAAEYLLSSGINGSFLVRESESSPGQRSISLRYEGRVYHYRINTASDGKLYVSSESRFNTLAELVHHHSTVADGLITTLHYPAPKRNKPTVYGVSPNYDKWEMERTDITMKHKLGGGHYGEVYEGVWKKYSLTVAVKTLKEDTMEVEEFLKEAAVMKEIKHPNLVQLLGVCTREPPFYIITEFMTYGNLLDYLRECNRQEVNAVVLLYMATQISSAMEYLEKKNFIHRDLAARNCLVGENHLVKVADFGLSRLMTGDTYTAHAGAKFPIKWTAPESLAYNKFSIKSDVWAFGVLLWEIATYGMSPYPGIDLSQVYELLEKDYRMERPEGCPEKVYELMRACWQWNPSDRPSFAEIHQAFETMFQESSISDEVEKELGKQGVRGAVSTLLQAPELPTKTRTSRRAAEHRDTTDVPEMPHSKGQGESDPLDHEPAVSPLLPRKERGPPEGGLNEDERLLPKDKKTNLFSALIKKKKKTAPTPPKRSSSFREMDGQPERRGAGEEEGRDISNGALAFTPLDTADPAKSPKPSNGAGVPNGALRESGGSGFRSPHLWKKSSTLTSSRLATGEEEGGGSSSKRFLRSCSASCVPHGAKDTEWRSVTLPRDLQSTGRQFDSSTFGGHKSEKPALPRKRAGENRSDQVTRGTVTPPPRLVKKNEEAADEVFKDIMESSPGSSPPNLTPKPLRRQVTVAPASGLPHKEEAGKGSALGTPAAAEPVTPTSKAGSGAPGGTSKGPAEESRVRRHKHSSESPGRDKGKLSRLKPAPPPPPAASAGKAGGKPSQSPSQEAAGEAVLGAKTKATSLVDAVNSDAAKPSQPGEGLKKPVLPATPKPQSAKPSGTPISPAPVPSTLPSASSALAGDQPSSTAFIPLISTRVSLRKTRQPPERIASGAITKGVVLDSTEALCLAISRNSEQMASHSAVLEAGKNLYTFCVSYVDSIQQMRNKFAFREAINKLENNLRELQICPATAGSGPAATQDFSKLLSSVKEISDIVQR

BRK(h) = BRK(h) (human, UniProt Q13882 1-451, limits assumed)

Sequence of Pim-1(h) (P11309 whole entry): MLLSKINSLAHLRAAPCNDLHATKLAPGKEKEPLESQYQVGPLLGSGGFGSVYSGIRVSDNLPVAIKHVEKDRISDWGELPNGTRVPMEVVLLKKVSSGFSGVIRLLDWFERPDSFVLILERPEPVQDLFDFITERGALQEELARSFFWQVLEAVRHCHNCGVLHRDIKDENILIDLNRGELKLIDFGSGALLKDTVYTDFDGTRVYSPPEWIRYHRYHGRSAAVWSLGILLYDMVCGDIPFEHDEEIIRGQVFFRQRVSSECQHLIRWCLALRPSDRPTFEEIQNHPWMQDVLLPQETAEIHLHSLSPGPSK
Sequence of FGFR1(h) (P11362 456-765 limits assumed): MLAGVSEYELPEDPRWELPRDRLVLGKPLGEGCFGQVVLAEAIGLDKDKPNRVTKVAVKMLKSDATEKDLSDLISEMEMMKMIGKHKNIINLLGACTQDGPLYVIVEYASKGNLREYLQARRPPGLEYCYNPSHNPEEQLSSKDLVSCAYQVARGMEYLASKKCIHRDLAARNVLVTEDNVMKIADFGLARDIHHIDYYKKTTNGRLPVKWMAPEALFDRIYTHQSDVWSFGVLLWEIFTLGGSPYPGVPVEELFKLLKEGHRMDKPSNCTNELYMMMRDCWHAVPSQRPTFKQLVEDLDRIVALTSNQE
Sequence of NEK6(h) (Q9HC98 whole entry): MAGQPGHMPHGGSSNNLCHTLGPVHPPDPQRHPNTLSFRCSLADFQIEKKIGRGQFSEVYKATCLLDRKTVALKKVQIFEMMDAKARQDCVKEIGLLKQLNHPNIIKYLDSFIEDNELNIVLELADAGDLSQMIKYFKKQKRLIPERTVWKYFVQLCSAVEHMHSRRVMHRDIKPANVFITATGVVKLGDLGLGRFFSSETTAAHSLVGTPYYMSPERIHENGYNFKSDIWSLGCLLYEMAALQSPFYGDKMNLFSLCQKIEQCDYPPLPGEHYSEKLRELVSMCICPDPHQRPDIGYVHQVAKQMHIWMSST
Sequence of PDGFRβ(h) (P09619 557-1106 limits assumed): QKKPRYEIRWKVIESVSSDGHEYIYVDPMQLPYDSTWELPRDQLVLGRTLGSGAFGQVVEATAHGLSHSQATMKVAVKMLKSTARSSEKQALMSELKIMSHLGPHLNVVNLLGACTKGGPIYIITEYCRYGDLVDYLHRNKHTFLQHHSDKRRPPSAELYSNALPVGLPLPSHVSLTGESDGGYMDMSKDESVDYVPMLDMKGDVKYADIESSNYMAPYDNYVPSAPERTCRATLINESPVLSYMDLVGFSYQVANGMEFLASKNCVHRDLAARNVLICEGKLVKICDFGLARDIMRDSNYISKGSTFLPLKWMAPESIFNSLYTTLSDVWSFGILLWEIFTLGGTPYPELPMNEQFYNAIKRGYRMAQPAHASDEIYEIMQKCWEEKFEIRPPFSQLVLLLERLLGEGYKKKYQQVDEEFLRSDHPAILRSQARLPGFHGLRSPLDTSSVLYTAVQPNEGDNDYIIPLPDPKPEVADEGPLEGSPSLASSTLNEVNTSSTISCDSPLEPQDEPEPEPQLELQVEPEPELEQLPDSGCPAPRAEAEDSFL
Sequence of Flt4(h) (P35916 800-1363 limits assumed): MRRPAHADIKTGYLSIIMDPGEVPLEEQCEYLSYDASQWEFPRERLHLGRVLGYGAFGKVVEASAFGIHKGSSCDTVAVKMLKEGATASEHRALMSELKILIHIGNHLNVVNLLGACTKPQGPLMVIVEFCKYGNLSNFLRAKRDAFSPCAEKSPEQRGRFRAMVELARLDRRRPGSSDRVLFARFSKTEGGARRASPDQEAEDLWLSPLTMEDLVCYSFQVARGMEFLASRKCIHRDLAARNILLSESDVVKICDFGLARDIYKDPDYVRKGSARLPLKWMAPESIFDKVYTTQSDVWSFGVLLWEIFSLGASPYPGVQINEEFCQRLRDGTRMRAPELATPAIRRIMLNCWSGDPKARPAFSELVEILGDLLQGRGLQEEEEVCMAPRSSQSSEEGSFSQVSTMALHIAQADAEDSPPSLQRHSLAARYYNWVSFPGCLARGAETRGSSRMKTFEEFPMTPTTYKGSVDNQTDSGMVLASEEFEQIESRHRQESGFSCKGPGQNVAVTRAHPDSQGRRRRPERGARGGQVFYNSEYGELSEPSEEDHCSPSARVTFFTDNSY

Binder: KAFAKLAARLYRKALARQLGVAA [MMI-0400]
- % activity (Flt4(h)): 89%
- % activity (Pim-1(h)): 7%
- % activity (NEK6(h)): 85%
- % activity (FGFR1(h)): 59%
- % activity (PDGFRβ(h)): 53%
- % activity (JNK3(h)): 70%
- % activity (Syk(h)): 9%
- % activity (Tie2(Y897S)(h)): 87%
- % activity (MST2(h)): 11%
- % activity (Aurora-A(h)): 119%
- % activity (MELK(h)): 17%
- % activity (Tie2(h)): 21%
- % activity (TAO2(h)): 74%
- % activity (PKCτ(h)): 46%
- % activity (MLK1(h)): 33%
- % activity (STK33(h)): 52%
- % activity (PRAK(h)): 118%
- % activity (Ab1(Q252H)(h)): 98%
- % activity (BRK(h)): 18%

Binder: FAKLAARLYRKALARQLGVAA [MMI-0300]
- % activity (Flt4(h)): 83%
- % activity (Pim-1(h)): 8%
- % activity (NEK6(h)): 82%
- % activity (FGFR1(h)): 55%
- % activity (PDGFRβ(h)): 81%
- % activity (JNK3(h)): 89%
- % activity (Syk(h)): 24%
- % activity (Tie2(Y897S)(h)): 83%
- % activity (MST2(h)): 19%
- % activity (Aurora-A(h)): 92%
- % activity (MELK(h)): 16%
- % activity (Tie2(h)): 26%
- % activity (TAO2(h)): 70%
- % activity (PKCτ(h)): 68%
- % activity (MLK1(h)): 40%
- % activity (STK33(h)): 45%
- % activity (PRAK(h)): 128%
- % activity (Ab1(Q252H)(h)): 82%
- % activity (BRK(h)): 35%
